# Assay results from paper PMC10857811 (Chem, 2024).
# Substitutions are numbered along the chain they refer to. In names and notes the source's numbering stands.
# B1: Pseudomonas fluorescens esterase variant p2 (T3C) (enzyme)
# chain: SCFVAKDGTQIYFKDWGSGKPVLFSHGWLLDADMWEYQMEYLSSRGYRTIAFDRRGFGRSDQPWTGNDYDTFADDIAQLIEHLDLKEVTLVGFSMGGGDVARYIARHGSARVAGLVLLGAVTPLFGQKPDYPQGVPLDVFARFKTELLKDRAQFISDFNAPFYGINKGQVVSQGVQTQTLQIALLASLKATVDCVTAFAETDFRPDMAKIDVPTLVIHGDGDQIVPFETTGKVAAELIKGAELKVYKDAPHGFAVTHAQQLNEDLLAFLKR
# B2: Pseudomonas fluorescens esterase variant p3 (Q174C) (enzyme)
# chain: B1 chain with C2T, Q173C
# B3: Pseudomonas fluorescens esterase variant p4 (T3C and Q174C) (enzyme)
# chain: B1 chain with Q173C
# Biological target: the molecule itself
# Assay: cross-linking
row,Protein,stoichiometry N
1,B1,3
2,B2,3
3,B3,3
